Measurements taken from patent publication US20040063641A1, “Use of growth hormone or a growth hormone secretagogue for promoting bone formation” (priority 1996, published 2004).

B1: GH: recombinant porcine growth hormone (r-pGH), homologous GH given by daily injection to mini-pigs (protein, UniProt P01248 27-216, looked up)
Somatotropin: FPAMPLSSLFANAVLRAQHLHQLAADTYKEFERAYIPEGQRYSIQNAQAAFCFSETIPAPTGKDEAQQRSDVELLRFSLLLIQSWLGPVQFLSRVFTNSLVFGTSDRVYEKLKDLEEGIQALMRELEDGSPRAGQILKQTYDKFDTNLRSDDALLKNYGLLSCFKKDLHKAETYLRVMKCRRFVESSCAF
B2: cST: canine somatotropin, given to dogs in the cited study of Buonomo et al. (protein, UniProt P33711 27-216, looked up)
Somatotropin: B1 Somatotropin

What was measured:
[1] = system: distracted tibia (bone regenerate); assay: Mechanical torsion testing of distracted tibia after callus distraction in mini-pigs; assay type: in vivo, Yucatan mini-pigs; settings: r-pGH 100 μg/kg daily injection
Experimental: After sacrifice, the right and left limb were dissected. The soft tissue around the joints was removed, and the ends of the tibia were casted in Beracryl. The constructs were placed in a materials testing machine (Zwick, Ulm, Germany), and torsional moments were applied. Resulting displacements and torsional moments were recorded. The test was conducted with a speed of 30° per minute until failure. The system automatically terminated the test at a torque of […]. The final bone torsional strength of a mini-pig group treated with growth hormone was investigated relative to a control group. 30 mature female Yucatan mini-pigs were equally distributed into two treatment groups. Mini-pigs in the study group received a daily injection of recombinant porcine growth hormone (r-pGH: 100 μg/kg), the mini-pigs in the control group received sodium chloride as placebo. The left tibiae and fibulae were osteotomized and stabilized with an external fixator. Full weight bearing was permitted. The legs were distracted twice daily at 2 mm/day for 10 days and then allowed to consolidate for 10 days. After sacrifice, torsional moments were applied to the distracted and the contralateral tibia in a material testing machine and the maximum torsional moment was determined. Four animals were removed from the study due to bone infection or surgery failure and data of 2 animals were lost due to test machine failure. A t-test was used to determine differences in maximum torsional moments between the treatment groups.

healing fracture = settings: dogs treated with cST; no distraction; cited from earlier work

| Molecule | maximum torsional moment in comparison to the intact contralateral tibia ([1]; at sacrifice, p<0.001 vs control) [%] | maximum torsional moment ([1]; distracted tibia at sacrifice, mean±SD, p=0.001 vs placebo) [Nm] | maximum torsional moment, higher than that of the placebo group ([1]; distraction 2 mm/day for 10 days, consolidation 10 days, at sacrifice, p=0.001) [%] | increase of stiffness of the healing fracture as compared to non-treated dogs (healing fracture) [fold] | increase of strength of the healing fracture as compared to non-treated dogs (healing fracture) [fold] |
| --- | --- | --- | --- | --- | --- |
| B1 | 64±22.4 | 19.5±7.8 | 131 |  |  |
| B2 |  |  |  | 5 | 3 |
